In patent US20230002728A1, “STEM CELL FATE ENGINEERING METHODS” (Wisconsin Alumni Research Foundation, priority 2021, published 2023):

Experiments:
Format in all cases: cell-based, human
[1] = test system: H9 hESCs; test: ALK inhibitor test on BMP4 patterns (BRA immunostaining, day 2); details: 1 μM A83-01, 10 μM SB-431542 or 2 μM LDN-212854 added for the initial 24 h
Description: For localized mesendoderm differentiation, 2-2.5 ng/μl BMP4 solution was placed with various patterns on different substrates. For glass surfaces, 1.5 ng/μl BMP4 solution was used. 5 ng/μl noggin solution was placed as a droplet to show an inhibitory effect of noggin on BMP4-induced mesendoderm differentiation. After washing, substrate was coated with Matrigel® for 2 hours as described above. Glass was coated with Matrigel® overnight. 0.025 mg/ml Synthemax (Corning, 3535) (final concentration, diluted in water) was added to a washed TC-treated plate and the plate was incubated for 2 hours at room temperature prior to cell seeding. 5 μg/ml truncated recombinant human vitronectin (Gibco, A14700) diluted in PBS was added to a washed TC-treated plate and the plate was incubated for 1 hour at room temperature prior to cell seeding. After ECM coating, the ECM solution was aspirated and hPSCs were singularized using Accutase (10 min incubation at 37° C.), resuspended in mTeSR1 supplemented with 5 μM Y-27632, and seeded at 5×10^5 to about 1×10^6 cells/cm^2 on coated substrates (day 0). […]
(§1) For immunostaining of other protein markers, cells were fixed in 4% paraformaldehyde (Electron Microscopy Sciences, 15710-S) in PBS for 15 min at room temperature, washed with PBS three times, and incubated in diluted primary antibodies in 5% nonfat dry milk (Santa Cruz Biotechnology, sc-2324)/0.4% Triton X-100 (Fisher Scientific, BP151-500) PBS overnight at 4° C. […] After secondary antibody staining, the cells were washed with PBS three times, incubated in 2 μg/ml Hoechst 33342 diluted in PBS for 5 min at room temperature, washed with PBS two times, and analyzed under the fluorescence microscope.
Next, BMP4 solution was placed on TC-treated plates in various patterns (droplet, letters, circle, heart, and star), and hPSCs seeded onto the substrate in mTeSR1 maintenance medium. […] Since the presence of inhibitory morphogens is also important in developmental patterning, a BMP inhibitor, noggin, was evaluated for antagonism to localized BMP4-induced mesendoderm differentiation. […]

[2] = test system: H9 hESC-derived cardiac progenitor cells (CPCs); test: Localized EpiC differentiation of hPSC-derived cardiac progenitors on morphogen droplets (WT1 immunostaining); details: droplets on TC-coated PS plate, 7d after cardiac progenitor seeding
Description: For localized EpiC differentiation, BMP4 (2 ng/μl)+Wnt3a (40 ng/μl) solution was placed in PDMS stencil masks either on a TC-treated plate or an ibidi 35 mm polymer dish. Matrigel® coating was performed as described above. Cryopreserved CPCs were thawed and seeded at 500,000-550,000 cells/cm^2 in LaSR medium (advanced DMEM/F12 (Gibco, 12634-010) supplemented with 60 μg/ml ascorbic acid (Sigma, A8960) and 2.5 mM Glutamax (Gibco, 35050-061)) supplemented with 5 μM Y-27632). Medium was changed daily with fresh LaSR medium until analysis. Time lapse imaging of CPCs derived from H9-hTNNT2-GFP hESC during localized EpiC differentiation was performed using a fluorescence microscope equipped with a heating stage top incubator. 18 days after CPC seeding, cells cultured on an ibidi polymer dish were immunostained and imaged using a confocal microscope (Nikon, A1R-SI+) for the analysis of sarcomere structure.
Spatial organization of cell fate commitment is important throughout development. […] These cardiac progenitors can further differentiate into CMs without any specific external signaling factors and can also differentiate into EpiCs upon activation of canonical Wnt signaling (Bao et al. (2016) Nature biomed. Eng. 1, 1-12).

[3] = test system: H9 hESCs; test: Noggin droplet pattern, inhibitory effect on BMP4-induced mesendoderm differentiation (BRA immunostaining); details: 5 ng/μl noggin droplet on TC-treated PS; mTeSR1 with 10 ng/ml BMP4, 2 days
Description: For localized mesendoderm differentiation, 2-2.5 ng/μl BMP4 solution was placed with various patterns on different substrates. For glass surfaces, 1.5 ng/μl BMP4 solution was used. 5 ng/μl noggin solution was placed as a droplet to show an inhibitory effect of noggin on BMP4-induced mesendoderm differentiation. After washing, substrate was coated with Matrigel® for 2 hours as described above. Glass was coated with Matrigel® overnight. 0.025 mg/ml Synthemax (Corning, 3535) (final concentration, diluted in water) was added to a washed TC-treated plate and the plate was incubated for 2 hours at room temperature prior to cell seeding. […]
as §1, with “microscope. […]” for “microscope.”

[4] = test system: H9 hESCs; test: Localized definitive endoderm differentiation of hPSCs on adsorbed activin A patterns (SOX17/FOXA2 immunostaining)
Description: For immunostaining of other protein markers, cells were fixed in 4% paraformaldehyde (Electron Microscopy Sciences, 15710-S) in PBS for 15 min at room temperature, washed with PBS three times, and incubated in diluted primary antibodies in 5% nonfat dry milk (Santa Cruz Biotechnology, sc-2324)/0.4% Triton X-100 (Fisher Scientific, BP151-500) PBS overnight at 4° C. Then, the cells were washed with PBS three times and incubated in diluted secondary antibody in 5% nonfat dry milk/0.4% Triton X-100 PBS for 30 min at room temperature. After secondary antibody staining, the cells were washed with PBS three times, incubated in 2 μg/ml Hoechst 33342 diluted in PBS for 5 min at room temperature, washed with PBS two times, and analyzed under the fluorescence microscope.
For localized definitive endoderm differentiation, 25 ng/μl activin A solution was placed with various patterns on a TC-treated plate. Matrigel® coating and hPSC seeding was performed as the same way described above. Medium was changed daily with RPMI1640 medium supplemented with 2% FBS. For the ALK inhibitor test, 1 μM A83-01 (Tocris, 2939), 10 μM SB-431542 (Tocris, 1614), or 2 μM LDN-212854 (Tocris, 6151) was added to mTeSR1 at day 0. […]

Question: `Cc1cccc(-c2nn(C(=S)Nc3ccccc3)cc2-c2ccnc3ccccc23)n1` [A83-01] was tested. Which “BRA expression in cells on the BMP4-patterned area” value (“BRA expression in cells” for short) [1] did it give?
Answer: Its value is “suppressed BRA expression”.

Question: `c1cc(-c2cnn3cc(-c4ccc(N5CCNCC5)cc4)cnc23)c2cccnc2c1` [LDN-212854] was tested. Which “BRA expression in cells” value [1] did it give?
Answer: The value was “suppressed BRA expression”.

Question: `NC(=O)c1ccc(-c2nc(-c3ccc4c(c3)OCO4)c(-c3ccccn3)[nH]2)cc1` [SB431542] was tested. Which “BRA expression in cells” value [1] did it give?
Answer: The value was “suppressed BRA expression”.

B1: Wnt3a: human recombinant Wnt3a (R&D Systems, 5036-WN-010), morphogen (protein, UniProt P56704 19-352, looked up)
Protein Wnt-3a: SYPIWWSLAVGPQYSSLGSQPILCASIPGLVPKQLRFCRNYVEIMPSVAEGIKIGIQECQHQFRGRRWNCTTVHDSLAIFGPVLDKATRESAFVHAIASAGVAFAVTRSCAEGTAAICGCSSRHQGSPGKGWKWGGCSEDIEFGGMVSREFADARENRPDARSAMNRHNNEAGRQAIASHMHLKCKCHGLSGSCEVKTCWWSQPDFRAIGDFLKDKYDSASEMVVEKHRESRGWVETLRPRYTYFKVPTERDLVYYEASPNFCEPNPETGSFGTRDRTCNVSSHGIDGCDLLCCGRGHNARAERRREKCRCVFHWCCYVSCQECTRVYDVHTCK
Question: With B1 as the molecule, how does the “EpiC differentiation (WT1 expression)” value [2] read?
Answer: The value was “limited if any EpiC differentiation”.

B2: noggin: human recombinant noggin (R&D Systems, 6057-NG-025), a BMP inhibitor (protein, UniProt Q13253 28-232, looked up)
Noggin: QHYLHIRPAPSDNLPLVDLIEHPDPIFDPKEKDLNETLLRSLLGGHYDPGFMATSPPEDRPGGGGGAAGGAEDLAELDQLLRQRPSGAMPSEIKGLEFSEGLAQGKKQRLSKKLRRKLQMWLWSQTFCPVLYAWNDLGSRFWPRYVKVGSCFSKRSCSVPEGMVCKPSKSVHLTVLRWRCQRRGGQRCGWIPIQYPIISECKCSC
Question: For B2, which “effect on BMP4-induced mesendoderm differentiation (BRA expression)” value [3] is on record?
Answer: The value was “inhibited BMP4-induced mesendoderm differentiation”.

B3: activin A: human recombinant activin A (R&D Systems, 338-AC-010), morphogen (protein, UniProt P08476 311-426, looked up)
Inhibin beta A chain: GLECDGKVNICCKKQFFVSFKDIGWNDWIIAPSGYHANYCEGECPSHIAGTSGSSLSFHSTVINHYRMRGHSPFANLKSCCVPTKLRPMSMLYYDDGQNIIKKDIQNMIVEECGCS
Question: B3 was tested. Which “endoderm differentiation (patterned SOX17 expression)” value ([4]; 25 ng/μl activin A adsorbed on TC-treated plate, day 3) did it give?
Answer: The value was “induced localized endoderm differentiation”.

Question: And the “cells expressing SOX17 and FOXA2 on the patterned area” value ([4]; day 5 of differentiation)?
Answer: Its value is “almost all of the cells”.
